Reference: paper PMC3507621, “Implication of the oligomeric state of the N-terminal PTX3 domain in cumulus matrix assembly” (Matrix Biology, 2011)
Values joined by “and” are separate entries in the source; they are usually repeats but may differ in a detail not shown here. Identical values can stand only once.

B1: mouse TSG-6 (tumor necrosis factor-induced protein 6) (natural protein, UniProt O08859 18-275, looked up)
chain: WGFKNGIFHNSIWLEQAAGVYHREARAGRYKLTYAEAKAVCEFEGGRLATYKQLEAARKIGFHVCAAGWMAKGRVGYPIVKPGPNCGFGKTGIIDYGIRLNRSERWDAYCYNPHAKECGGVFTDPKRIFKSPGFPNEYDDNQVCYWHIRLKYGQRIHLSFLDFDLEHDPGCLADYVEIYDSYDDVHGFVGRYCGDELPEDIISTGNVMTLKFLSDASVTAGGFQIKYVTVDPASKSSQAKNTSTTGNKKFLPGRFSHL
notes: TSG-6 (tumor necrosis factor-induced protein 6), mouse; source: bought: R&D

Experiments:
[1] = biological target: T1, biotinylated recombinant full length PTX3 (human, UniProt P26022 18-381, biotin); test: ELISA; competition: wells coated with 500 ng of IαI or TSG-6; 50 ng/well biotinylated PTX3 with or without unlabeled N_PTX3 or triple mutant, 1 h at 37 °C; HRP-streptavidin; conditions: both partners purified
T1 construct: Pentraxin 3 (PTX3), human recombinant wild type, full length; As a secreted protein it probably lacks the signal peptide (residues 1-17; surmise); also called bPTX3; biotinylated PTX3

[2] = biological target: B1; test: ELISA; N_PTX3 proteins coated on wells (10 μg/ml); IαI or TSG-6 added in PBS with Ca2+ and Mg2+, 0.05% Tween-20, 1% BSA, pH 7.4, 2 h at 37 °C; detected with polyclonal anti-IαI or anti-TSG-6; conditions: both partners purified
[3] = biological target: the molecule itself; test: SEC + native gel or EMSA; Superose 6 in 20 mM sodium phosphate, 150 mM NaCl, pH 7.4; native 4-20% polyacrylamide gel without SDS; oligomeric state of purified N_PTX3 proteins

binding result [1]	Binder	binding result [2]	stoichiometry N [3]
binds	B1		
	wild type recombinant N-terminal region of PTX3 (N_PTX3) (domain or fragment, human, Pentraxin 3 (PTX3), human, residues 18-170 of the PTX3 preprotein; two non-authentic amino acids (Thr-Gly) before the C-terminal His tag; Organised into tetramers by SEC and native gel; The 5' primer begins at the ATG of the preprotein, so the signal peptide was probably encoded and cut off on secretion (surmise); also called WT; source: HEK-293 F, stably transfected, purified from culture …) ENSDDYDLMYVNLDNEIDNGLHPTEDPTPCACGQEHSEWDKLFIMLENSQMRERMLLQATDDVLRGELQRLREELGRLAESLARPCAPGAPAEARLTSALDELLQATRDAGRRLARMEGAEAQRPEEAGRALAAVLEELRQTRADLHAVQGWATG	binds	4
	N_PTX3C47S/C49S/C103S (domain or fragment, human, Pentraxin 3 (PTX3), human, residues 18-170 of the PTX3 preprotein, with C47S, C49S and C103S; two non-authentic amino acids (Thr-Gly) before the C-terminal His tag; Composed entirely of non-covalent dimers; also called triple mutant; C47/C49/C103; source: HEK-293 F, stably transfected, purified from culture supernatant (HisTrap, desalting)) ENSDDYDLMYVNLDNEIDNGLHPTEDPTPSASGQEHSEWDKLFIMLENSQMRERMLLQATDDVLRGELQRLREELGRLAESLARPSAPGAPAEARLTSALDELLQATRDAGRRLARMEGAEAQRPEEAGRALAAVLEELRQTRADLHAVQGWATG	binds	2
	N_PTX3C47S/C49S (domain or fragment, human, Pentraxin 3 (PTX3), human, residues 18-170 of the PTX3 preprotein, with C47S and C49S; two non-authentic amino acids (Thr-Gly) before the C-terminal His tag; Mixture of tetramers and dimers, more dimers than tetramers; also called double mutant; C47/C49; source: HEK-293 F, stably transfected, purified from culture supernatant (HisTrap, desalting)) ENSDDYDLMYVNLDNEIDNGLHPTEDPTPSASGQEHSEWDKLFIMLENSQMRERMLLQATDDVLRGELQRLREELGRLAESLARPCAPGAPAEARLTSALDELLQATRDAGRRLARMEGAEAQRPEEAGRALAAVLEELRQTRADLHAVQGWATG	binds	4 and 2
	N_PTX3C103S (domain or fragment, human, Pentraxin 3 (PTX3), human, residues 18-170 of the PTX3 preprotein, with C103S; two non-authentic amino acids (Thr-Gly) before the C-terminal His tag; Mixture of tetramers and dimers, more tetramers than dimers; also called single mutant; source: HEK-293 F, stably transfected, purified from culture supernatant (HisTrap, desalting)) ENSDDYDLMYVNLDNEIDNGLHPTEDPTPCACGQEHSEWDKLFIMLENSQMRERMLLQATDDVLRGELQRLREELGRLAESLARPSAPGAPAEARLTSALDELLQATRDAGRRLARMEGAEAQRPEEAGRALAAVLEELRQTRADLHAVQGWATG	binds	4 and 2
